From patent US7569748 (WISCONSIN ALUMNI RESEARCH FOUNDATION, dated 2009) come the findings set out here.

The test system of series [1] is TcbA (native, from W-14 broth).
The target in the next series is T1, TcbAiii (Photorhabdus luminescens strain W-14).
T1 construct: Processed peptide of TcbA; also detected in E. coli preparations expressing tcbA constructs; also called B2; 58 kDa peptide of toxin B
T1 chain: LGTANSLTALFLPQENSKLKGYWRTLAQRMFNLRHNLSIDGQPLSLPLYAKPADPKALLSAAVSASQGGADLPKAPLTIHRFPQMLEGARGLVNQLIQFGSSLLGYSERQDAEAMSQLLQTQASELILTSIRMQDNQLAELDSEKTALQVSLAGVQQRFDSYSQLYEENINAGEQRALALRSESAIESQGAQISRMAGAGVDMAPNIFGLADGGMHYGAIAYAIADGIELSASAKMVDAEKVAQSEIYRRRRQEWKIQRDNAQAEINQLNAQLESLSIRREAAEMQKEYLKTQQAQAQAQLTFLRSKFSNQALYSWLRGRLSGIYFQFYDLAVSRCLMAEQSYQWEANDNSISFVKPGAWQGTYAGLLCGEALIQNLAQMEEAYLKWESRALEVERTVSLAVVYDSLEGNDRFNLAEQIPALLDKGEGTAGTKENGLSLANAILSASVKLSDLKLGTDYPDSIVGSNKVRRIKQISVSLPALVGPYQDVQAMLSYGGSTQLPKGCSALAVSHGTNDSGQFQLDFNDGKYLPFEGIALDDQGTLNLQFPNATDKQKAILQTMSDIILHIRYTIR
Put plainly: native PAGE (one major band), gel filtration 860 kDa, same molar concentration. Background: Size exclusion chromatography separates by hydrodynamic size, large species first.

The next series addresses T2, TcdAiii (Photorhabdus luminescens strain W-14).
T2 construct: Processed peptide of TcdA; also called A2
T2 chain: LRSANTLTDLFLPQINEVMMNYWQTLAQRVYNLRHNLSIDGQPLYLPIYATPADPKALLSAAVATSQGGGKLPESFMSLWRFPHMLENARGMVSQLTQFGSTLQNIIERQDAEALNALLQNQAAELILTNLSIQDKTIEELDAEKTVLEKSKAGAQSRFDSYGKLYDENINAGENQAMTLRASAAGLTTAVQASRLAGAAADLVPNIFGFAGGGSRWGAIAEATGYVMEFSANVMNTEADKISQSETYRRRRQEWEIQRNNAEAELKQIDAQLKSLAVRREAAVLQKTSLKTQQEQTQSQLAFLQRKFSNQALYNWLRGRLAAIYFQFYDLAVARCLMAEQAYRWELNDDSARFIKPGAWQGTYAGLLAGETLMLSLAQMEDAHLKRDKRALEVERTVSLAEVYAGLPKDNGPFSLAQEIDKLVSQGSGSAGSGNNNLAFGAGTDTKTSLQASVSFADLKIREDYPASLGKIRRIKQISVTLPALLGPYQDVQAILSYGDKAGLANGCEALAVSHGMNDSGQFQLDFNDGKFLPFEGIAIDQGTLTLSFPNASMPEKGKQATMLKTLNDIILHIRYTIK
Put plainly: native PAGE (one major band), gel filtration 860 kDa, 1 to 1 molar ratio by densitometry.

Turning to “38 kDa W-14 Photorhabdus metalloprotease”, in series [1], the TcbA (% of total protein) after 38 kDa protease treatment (control 58) (% of total protein) came out at 18; the “cleavage of TcbA followed by SDS-PAGE densitometry” value is “the amount of peptides TcbAii and TcbAiii increased about 3-fold while the amount of TcbA peptide decreased proportionally”. Take “58 kDa W-14 Photorhabdus metalloprotease”: the “cleavage of TcbA followed by SDS-PAGE densitometry” value in series [1] was “the amount of peptides TcbAii and TcbAiii increased about 3-fold while the amount of TcbA peptide decreased proportionally”.

B1: TcbAii (other)
chain: FIQGYSDLFGNRADNYAAPGSVASMFSPAAYLTELYREAKNLHDSSSIYYLDKRRPDLASLMLSQKNMDEEISTLALSNELCLAGIETKTGKSQDEVMDMLSTYRLSGETPYHHAYETVREIVHERDPGFRHLSQAPIVAAKLDPVTLLGISSHISPELYNLLIEEIPEKDEAALDTLYKTNFGDITTAQLMSPSYLARYYGVSPEDIAYVTTSLSHVGYSSDILVIPLVDGVGKMEVVRVTRTPSDNYTSQTNYIELYPQGGDNYLIKYNLSNSFGLDDFYLQYKDGSADWTEIAHNPYPDMVINQKYESQATIKRSDSDNILSIGLQRWHSGSYNFAAANFKIDQYSPKAFLLKMNKAIRLLKATGLSFATLERIVDSVNSTKSITVEVLNKVYRVKFYIDRYGISEETAAILANINISQQAVGNQLSQFEQLFNHPPLNGIRYEISEDNSKHLPNPDLNLKPDSTGDDQRKAVLKRAFQVNASELYQMLLITDRKEDGVIKNNLENLSDLYLVSLLAQIHNLTIAELNILLVICGYGDTNIYQITDDNLAKIVETLLWITQWLKTQKWTVTDLFLMTTATYSTTLTPEISNLTATLSSTLHGKESLIGEDLKRAMAPCFTSALHLTSQEVAYDLLLWIDQIQPAQITVDGFWEEVQTTPTSLKVITFAQVLAQLSLIYRRIGLSETELSLIVTQSSLLVAGKSILDHGLLTLMALEGFHTWVNGLGQHASLILAALKDGALTVTDVAQAMNKEESLLQMAANQVEKDLTKLTSWTQIDAILQWLQMSSALAVSPLDLAGMMALKYGIDHNYAAWQAAAAALMADHANQAQKKLDETFSKALCNYYINAVVDSAAGVRDRNGLYTYLLIDNQVSADVITSRIAEAIAGIQLYVNRALNRDEGQLASDVSTRQFFTDWERYNKRYSTWAGVSELVYYPENYVDPTQRIGQTKMMDALLQSINQSQLNADTVEDAFKTYLTSFEQVANLKVISAYHDNVNVDQGLTYFIGIDQAAPGTYYWRSVDHSKCENGKFAANAWGEWNKITCAVNPWKNIIRPVVYMSRLYLLWLEQQSKKSDDGKTTIYQYNLKLAHIRYDGSWNTPFTFDVTEKVKNYTSSTDAAESLGLYCTGYQGEDTLLVMFYSMQSSYSSYTDNNAPVTGLYIFADMSSDNMTNAQATNYWNNSYPQFDTVMADPDSDNKKVITRRVNNRYAEDYEIPSSVTSNSNYSWGDHSLTMLYGGSVPNITFESAAEDLRLSTNMALSIIHNGYAGTRRIQCNLMKQYASLGDKFIIYDSSFDDANRFNLVPLFKFGKDENSDDSICIYNENPSSEDKKWYFSSKDDNKTADYNGGTQCIDAGTSNKDFYYNLQEIEVISVTGGYWSSYKISNPININTGIDSAKVKVTVKAGGDDQIFTADNSTYVPQQPAPSFEEMIYQFNNLTIDCKNLNFIDNQAHIEIDFTATAQDGRFLGAETFIIPVTKKVLGTENVIALYSENNGVQYMQIGAYRTRLNTLFAQQLVSRANRGIDAVLSMETQNIQEPQLGAGTYVQLVLDKYDESIHGTNKSFAIEYVDIFKENDSFVIYQGELSETSQTVVKVFLSYFIEATGNKNHLWVRAKYQKETTDKILFDRTDEKDPHGWFLSDDHKTFSGLSSAQALKNDSEPMDFSGANALYFWELFYYTPMMMAHRLLQEQNFDAANHWFRYVWSPSGYIVDGKIAIYHWNVRPLEEDTSWNAQQLDSTDPDAVAQDDPMHYKVATFMATLDLLMARGDAAYRQLERDTLAEAKMWYTQALNLLGDEPQVMLSTTWANPTLGNAASKTTQQVRQQVLTQLRLNSRVKTPL
notes: Processed peptide of TcbA; also called B1; 201 kDa peptide
As to B1, the binding result in the series with TcbAiii is given as “binds”.

B2: TcdAii (other)
chain: LIGYNNQFSGRASQYVAPGTVSSMFSPAAYLTELYREARNLHASDSVYYLDTRRPDLKSMALSQQNMDIELSTLSLSNELLLESIKTESKLENYTKVMEMLSTFRPSGATPYHDAYENVREVIQLQDPGLEQLNASPAIAGLMHQASLLGINASISPELFNILTEEITEGNAEELYKKNFGNIEPASLAMPEYLKRYYNLSDEELSQFIGKASNFGQQEYSNNQLITPVVNSSDGTVKVYRITREYTTNAYQMDVELFPFGGENYRLDYKFKNFYNASYLSIKLNDKRELVRTEGAPQVNIEYSANITLNTADISQPFEIGLTRVLPSGSWAYAAAKFTVEEYNQYSFLLKLNKAIRLSRATELSPTILEGIVRSVNLQLDINTDVLGKVFLTKYYMQRYAIHAETALILCNAPISQRSYDNQPSQFDRLFNTPLLNGQYFSTGDEEIDLNSGSTGDWRKTILKRAFNIDDVSLFRLLKITDHDNKDGKIKNNLKNLSNLYIGKLLADIHQLTIDELDLLLIAVGEGKTNLSAISDKQLATLIRKLNTITSWLHTQKWSVFQLFIMTSTSYNKTLTPEIKNLLDTVYHGLQGFDKDKADLLHVMAPYIAATLQLSSENVAHSVLLWADKLQPGDGAMTAEKFWDWLNTKYTPGSSEAVETQEHIVQYCQALAQLEMVYHSTGINENAFRLFVTKPEMFGAATGAAPAHDALSLIMLTRFADWVNALGEKASSVLAAFEANSLTAEQLADAMNLDANLLLQASIQAQNHQHLPPVTPENAFSCWTSINTILQWVNVAQQLNVAPQGVSALVGLDYIQSMKETPTYAQWENAAGVLTAGLNSQQANTLHAFLDESRSAALSTYYIRQVAKAAAAIKSRDDLYQYLLIDNQVSAAIKTTRIAEAIASIQLYVNRALENVEENANSGVISRQFFIDWDKYNKRYSTWAGVSQLVYYPENYIDPTMRIGQTKMMDALLQSVSQSQLNADTVEDAFMSYLTSFEQVANLKVISAYHDNINNDQGLTYFIGLSETDAGEYYWRSVDHSKFNDGKFAANAWSEWHKIDCPINPYKSTIRPVIYKSRLYLLWLEQKEITKQTGNSKDGYQTETDYRYELKLAHIRYDGTWNTPITFDVNKKISELKLEKNRAPGLYCAGYQGEDTLLVMFYNQQDTLDSYKNASMQGLYIFADMASKDMTPEQSNVYRDNSYQQFDTNNVRRVNNRYAEDYEIPSSVSSRKDYGWGDYYLSMVYNGDIPTINYKAASSDLKIYISPKLRIIHNGYEGQKRNQCNLMNKYGKLGDKFIVYTSLGVNPNNSSNKLMFYPVYQYSGNTSGLNQGRLLFHRDTTYPSKVEAWIPGAKRSLTNQNAAIGDDYATDSLNKPDDLKQYIFMTDSKGTATDVSGPVEINTAISPAKVQIIVKAGGKEQTFTADKDVSIQPSPSFDEMNYQFNALEIDGSGLNFINNSASIDVTFTAFAEDGRKLGYESFSIPVTLKVSTDNALTLHHNENGAQYMQWQSYRTRLNTLFARQLVARATTGIDTILSMETQNIQEPQLGKGFYATFVIPPYNLSTHGDERWFKLYIKHVVDNNSHIIYSGQLTDTNINITLFIPLDDVPLNQDYHAKVYMTFKKSPSDGTWWGPHFVRDDKGIVTINPKSILTHFESVNVLNNISSEPMDFSGANSLYFWELFYYTPMLVAQRLLHEQNFDEANRWLKYVWSPSGYIVHGQIQNYQWNVRPLLEDTSWNSDPLDSVDPDAVAQHDPMHYKVSTFMRTLDLLIARGDHAYRQLERDTLNEAKMWYMQALHLLGDKPYLPLSTTWSDPRLDRAADITTQNAHDSAIVALRQNIPTPAPLS
notes: Processed peptide of TcdA; also called A1
As to B2, in the series with TcdAiii, the binding result was “binds”.
